Series [1] has as its system HeLa Kyoto. Description: solubility in G1/S (NP-40 vs SDS abundance) (log2 ratio); higher = more soluble. The following applies: cell cycle stage: G1/S.
The subject of series [2] is HeLa Kyoto. Description: melting temperature (median over replicates), in situ; higher = more thermally stable.
The test system of series [3] is HeLa Kyoto. The series is described as follows: solubility change mitosis vs G1/S (difference of NP-40 vs SDS log2 ratios) (log2 ratio difference); higher = more soluble in mitosis.
The subject of series [4] is HeLa Kyoto. Description: thermal stability score vs G1/S (z-score of summed log2 fold changes over temperatures); higher = more thermally stable than in G1/S.
Where [5] appears, read: cell cycle stage: early G1 (4.5 h after nocodazole release).
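Throughout, for melting temperature (median over replicates), in situ: HeLa Kyoto cells synchronized by double thymidine or nocodazole block, proteins quantified by TMT10plex mass spectrometry, three independent biological replicates.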
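Throughout, for solubility change mitosis vs G1/S (difference of NP-40 vs SDS log2 ratios): synchronized HeLa Kyoto cells (double thymidine block for G1/S, nocodazole release for mitosis), protein amounts in NP-40 versus SDS lysates quantified by mass spectrometry, three biological replicates.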
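Throughout, for solubility in G1/S (NP-40 vs SDS abundance): HeLa Kyoto cells arrested at G1/S by double thymidine block, proteins quantified by TMT10plex mass spectrometry in mild NP-40 versus SDS extracts, three biological replicates.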
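Throughout, for thermal stability score vs G1/S (z-score of summed log2 fold changes over temperatures): synchronized HeLa Kyoto cells, proteins quantified by TMT10plex mass spectrometry, three biological replicates, mitosis taken 0.5 h after nocodazole release, G1/S directly after double thymidine block.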

Chain of LARS (chain, as listed by the source): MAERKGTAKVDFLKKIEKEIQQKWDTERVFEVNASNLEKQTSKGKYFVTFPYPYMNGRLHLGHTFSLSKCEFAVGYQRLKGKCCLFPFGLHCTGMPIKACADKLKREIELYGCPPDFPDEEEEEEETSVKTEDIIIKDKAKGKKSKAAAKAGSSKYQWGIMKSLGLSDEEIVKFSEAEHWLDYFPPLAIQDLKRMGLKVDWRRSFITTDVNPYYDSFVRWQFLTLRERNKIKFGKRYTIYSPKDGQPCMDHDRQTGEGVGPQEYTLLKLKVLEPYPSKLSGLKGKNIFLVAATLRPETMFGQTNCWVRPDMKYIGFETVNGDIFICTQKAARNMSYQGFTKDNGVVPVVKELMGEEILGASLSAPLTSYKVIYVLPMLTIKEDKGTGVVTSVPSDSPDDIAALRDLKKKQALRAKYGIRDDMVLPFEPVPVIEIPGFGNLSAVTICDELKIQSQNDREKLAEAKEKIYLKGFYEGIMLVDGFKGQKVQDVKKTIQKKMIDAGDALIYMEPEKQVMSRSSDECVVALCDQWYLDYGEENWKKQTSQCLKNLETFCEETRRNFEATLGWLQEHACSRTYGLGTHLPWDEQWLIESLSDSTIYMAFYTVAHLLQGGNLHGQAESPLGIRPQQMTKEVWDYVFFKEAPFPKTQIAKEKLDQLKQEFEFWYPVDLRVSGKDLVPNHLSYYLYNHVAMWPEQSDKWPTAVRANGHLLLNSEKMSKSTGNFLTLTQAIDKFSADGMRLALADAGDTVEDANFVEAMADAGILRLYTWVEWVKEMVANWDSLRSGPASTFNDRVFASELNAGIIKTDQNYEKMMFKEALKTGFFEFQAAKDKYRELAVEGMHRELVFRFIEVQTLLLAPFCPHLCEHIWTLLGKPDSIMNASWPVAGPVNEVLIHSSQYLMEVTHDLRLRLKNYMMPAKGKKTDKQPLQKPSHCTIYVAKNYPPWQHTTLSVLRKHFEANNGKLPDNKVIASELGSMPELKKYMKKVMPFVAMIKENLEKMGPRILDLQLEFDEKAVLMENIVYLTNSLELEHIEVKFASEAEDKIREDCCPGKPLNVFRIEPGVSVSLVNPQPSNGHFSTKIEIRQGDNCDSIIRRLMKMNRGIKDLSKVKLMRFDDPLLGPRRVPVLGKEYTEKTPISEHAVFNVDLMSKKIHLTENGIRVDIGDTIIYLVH

Turning to “MAAALWGFFPVLLLLLLSGDVQSSEVPGAAAEGSGGSGVGIGDRFKIEGRAVVPGVKPQDWISAARVLVDGEEHVGFLKTDGSFVVHDIPSGSYVVEVVSPAYRFDPVRVDITSKGKMRARYVNYIKTSEVVRLPYPLQMKSSGPPSYFIKRESWGWTDFLMNPMVMMMVLPLLIFVLLPKVVNTSDPDMRREMEQSMNMLNSNHELPDVSEFMTRLFSSKSSGKSSSGSSKTGKSGAGKRR [EMC7]”, the “solubility in G1/S (log2)” value in series [1] was determined as 0.424. Also, the melting temperature in series [2] (cell cycle stage: G1/S) was determined as 54.4 °C; in series [2] (cell cycle stage: mitosis), 54.1 °C. The “solubility change mitosis (log2)” value in series [3] worked out at 0.0594. The thermal stability score is -1.44 in series [4] (setting [5]) and -0.331 in series [4] (cell cycle stage: mitosis).

For the substance “MAMDSSLQARLFPGLAIKIQRSNGLIHSANVRTVNLEKSCVSVEWAEGGATKGKEIDFDDVAAINPELLQLLPLHPKDNLPLQENVTIQKQKRRSVNSKIPAPKESLRSRSTRMSTVSELRITAQENDMEVELPAAANSRKQFSVPPAPTRPSCPAVAEIPLRMVSEEMEEQVHSIRGSSSANPVNSVRRKSCLVKEVEKMKNKREEKKAQNSEMRMKRAQEYDSSFPNWEFARMIKEFRATLECHPLTMTDPIEEHRICVCVRKRPLNKQELAKKEIDVISIPSKCLLLVHEPKLKVDLTKYLENQAFCFDFAFDETASNEVVYRFTARPLVQTIFEGGKATCFAYGQTGSGKTHTMGGDLSGKAQNASKGIYAMASRDVFLLKNQPCYRKLGLEVYVTFFEIYNGKLFDLLNKKAKLRVLEDGKQQVQVVGLQEHLVNSADDVIKMIDMGSACRTSGQTFANSNSSRSHACFQIILRAKGRMHGKFSLVDLAGNERGADTSSADRQTRMEGAEINKSLLALKECIRALGQNKAHTPFRESKLTQVLRDSFIGENSRTCMIATISPGISSCEYTLNTLRYADRVKELSPHSGPSGEQLIQMETEEMEACSNGALIPGNLSKEEEELSSQMSSFNEAMTQIRELEEKAMEELKEIIQQGPDWLELSEMTEQPDYDLETFVNKAESALAQQAKHFSALRDVIKALRLAMQLEEQASRQISSKKRPQ [KIF2C]”, the “solubility in G1/S (log2)” value in series [1] is -0.0225. Also, the melting temperature in series [2] (cell cycle stage: G1/S) was found to be 48.6 °C; in series [2] (cell cycle stage: mitosis) it was 49.5 °C. For the same substance, in series [3], the “solubility change mitosis (log2)” value is -0.0369. Moreover, the results for the thermal stability score in series [4] (setting [5]) and in series [4] (cell cycle stage: mitosis) were 2.01 and 3.27, respectively.

Turning to “MAAQCVRLARRSLPALALSLRPSPRLLCTATKQKNSGQNLEEDMGQSEQKADPPATEKTLLEEKVKLEEQLKETVEKYKRALADTENLRQRSQKLVEEAKLYGIQAFCKDLLEVADVLEKATQCVPKEEIKDDNPHLKNLYEGLVMTEVQIQKVFTKHGLLKLNPVGAKFDPYEHEALFHTPVEGKEPGTVALVSKVGYKLHGRTLRPALVGVVKEA [GRPEL1]”, the “solubility in G1/S (log2)” value in series [1] is 0.661. The melting temperature in series [2] (cell cycle stage: G1/S) was 51.2 °C; in series [2] (cell cycle stage: mitosis), 51 °C. Besides, the “solubility change mitosis (log2)” value in series [3] was 0.707. Besides, the thermal stability score is -2.01 in series [4] (setting [5]) and -2.29 in series [4] (cell cycle stage: mitosis).

Consider “MTARGLALGLLLLLLCPAQVFSQSCVWYGECGIAYGDKRYNCEYSGPPKPLPKDGYDLVQELCPGFFFGNVSLCCDVRQLQTLKDNLQLPLQFLSRCPSCFYNLLNLFCELTCSPRQSQFLNVTATEDYVDPVTNQTKTNVKELQYYVGQSFANAMYNACRDVEAPSSNDKALGLLCGKDADACNATNWIEYMFNKDNGQAPFTITPVFSDFPVHGMEPMNNATKGCDESVDEVTAPCSCQDCSIVCGPKPQPPPPPAPWTILGLDAMYVIMWITYMAFLLVFFGAFFAVWCYRKRYFVSEYTPIDSNIAFSVNASDKGEASCCDPVSAAFEGCLRRLFTRWGSFCVRNPGCVIFFSLVFITACSSGLVFVRVTTNPVDLWSAPSSQARLEKEYFDQHFGPFFRTEQLIIRAPLTDKHIYQPYPSGADVPFGPPLDIQILHQVLDLQIAIENITASYDNETVTLQDICLAPLSPYNTNCTILSVLNYFQNSHSVLDHKKGDDFFVYADYHTHFLYCVRAPASLNDTSLLHDPCLGTFGGPVFPWLVLGGYDDQNYNNATALVITFPVNNYYNDTEKLQRAQAWEKEFINFVKNYKNPNLTISFTAERSIEDELNRESDSDVFTVVISYAIMFLYISLALGHMKSCRRLLVDSKVSLGIAGILIVLSSVACSLGVFSYIGLPLTLIVIEVIPFLVLAVGVDNIFILVQAYQRDERLQGETLDQQLGRVLGEVAPSMFLSSFSETVAFFLGALSVMPAVHTFSLFAGLAVFIDFLLQITCFVSLLGLDIKRQEKNRLDIFCCVRGAEDGTSVQASESCLFRFFKNSYSPLLLKDWMRPIVIAIFVGVLSFSIAVLNKVDIGLDQSLSMPDDSYMVDYFKSISQYLHAGPPVYFVLEEGHDYTSSKGQNMVCGGMGCNNDSLVQQIFNAAQLDNYTRIGFAPSSWIDDYFDWVKPQSSCCRVDNITDQFCNASVVDPACVRCRPLTPEGKQRPQGGDFMRFLPMFLSDNPNPKCGKGGHAAYSSAVNILLGHGTRVGATYFMTYHTVLQTSADFIDALKKARLIASNVTETMGINGSAYRVFPYSVFYVFYEQYLTIIDDTIFNLGVSLGAIFLVTMVLLGCELWSAVIMCATIAMVLVNMFGVMWLWGISLNAVSLVNLVMSCGISVEFCSHITRAFTVSMKGSRVERAEEALAHMGSSVFSGITLTKFGGIVVLAFAKSQIFQIFYFRMYLAMVLLGATHGLIFLPVLLSYIGPSVNKAKSCATEERYKGTERERLLNF [NPC1]”, for which, in series [1], the “solubility in G1/S (log2)” value was -0.0136. For the same substance, the melting temperature in series [2] (cell cycle stage: G1/S) stood at 58.3 °C; in series [2] (cell cycle stage: mitosis), 56.1 °C. For the same substance, the “solubility change mitosis (log2)” value in series [3] was -0.0644. The thermal stability score was -3.38 in series [4] (setting [5]) and -3.22 in series [4] (cell cycle stage: mitosis).

In the case of “MGRGWGFLFGLLGAVWLLSSGHGEEQPPETAAQRCFCQVSGYLDDCTCDVETIDRFNNYRLFPRLQKLLESDYFRYYKVNLKRPCPFWNDISQCGRRDCAVKPCQSDEVPDGIKSASYKYSEEANNLIEECEQAERLGAVDESLSEETQKAVLQWTKHDDSSDNFCEADDIQSPEAEYVDLLLNPERYTGYKGPDAWKIWNVIYEENCFKPQTIKRPLNPLASGQGTSEENTFYSWLEGLCVEKRAFYRLISGLHASINVHLSARYLLQETWLEKKWGHNITEFQQRFDGILTEGEGPRRLKNLYFLYLIELRALSKVLPFFERPDFQLFTGNKIQDEENKMLLLEILHEIKSFPLHFDENSFFAGDKKEAHKLKEDFRLHFRNISRIMDCVGCFKCRLWGKLQTQGLGTALKILFSEKLIANMPESGPSYEFHLTRQEIVSLFNAFGRISTSVKELENFRNLLQNIH [ERO1A]”, the “solubility in G1/S (log2)” value in series [1] came out at 0.338. Moreover, the melting temperature in series [2] (cell cycle stage: G1/S) turned out to be 54.2 °C; in series [2] (cell cycle stage: mitosis) it was 54.6 °C. Further, in series [3], the “solubility change mitosis (log2)” value is -0.161. Further, the thermal stability score is 5.02 in series [4] (setting [5]) and 7.63 in series [4] (cell cycle stage: mitosis).

With LARS, the “solubility in G1/S (log2)” value in series [1] was -0.189. For the same substance, the melting temperature in series [2] (cell cycle stage: G1/S) turned out to be 49 °C; in series [2] (cell cycle stage: mitosis) it was 49.1 °C. In series [3], the “solubility change mitosis (log2)” value was -0.14. Besides, the values for the thermal stability score in series [4] (setting [5]) and in series [4] (cell cycle stage: mitosis) were -0.182 and 2.83, respectively.
